{
  "source": "patent US20250327097A1",
  "about": "“ORGANISMS PRODUCING LESS CROTONIC ACID” (Global Bioenergies, priority 2021, published 2025)",
  "molecules": {"B1": {"name": "N287R-N388M-K394R-C430N-L432F-L434W-S436N (protein)", "chain": "MFLKSLREQINLLKRQGDLRIINRPVDSYLEAAAIIRRSTETKAPVPLMTNIKGYPGCSIVGGLAALSSNPEYPLSRVAMSLGLSTTASAQSIVQYLIDGLKKTPYLPVEIDSNSAPCKQNILRGEDASLAHFPIPQVHQHDGNRYVNTWGVFIVESPDGQWCNWSIQRVQYLNDRQMIALVFPSQHISDIWEEWVKIGKPMPYALVQGCEPIVPYIAGLPLLERNVNEAEYIGALYGKGIEVVKCETHDLRVPASSEVVIEGYFAITREGVEGPFGEFAGYIPNERSLQPILSITAISWQDDPIWPVVAEGKPVDEYHTCSGIGDAAAIQNVLLTANLPVSFVWVPLYSACHLMIVSINRHWRQTHPDLTSEQLTKKVGDVIHQTRMSIKLPRIVVLDDDVDPADTESLLWALATRIHPERKRYFYESNIFPWLNCYSEEERHNRKGKRVIIDALLPENHGAISSFDYAYPDDIKQRVLMHWETDFSHD"}, "B2": {"name": "I283T-N285P-N287T-Q290E-S322T-N388M-K394R-C430A-L432F-L434W-S436N-N460G-dG462 (protein)", "chain": "B1 chain with I283T, N285P, R287T, Q290E, S322T, N430A, N460G"}, "B3": {"name": "I283T-N285P-N287T-Q290E-S322T-N388M-K394R-C430A-L432F-L434W-S436N-dG462-A463F (protein)", "chain": "B1 chain with I283T, N285P, R287T, Q290E, S322T, N430A, A463F"}, "B4": {"name": "I283T-N285P-N287T-Q290E-S322T-N388M-K394R-C430A-L432F-L434W-S436N-dG462-A470S (protein)", "chain": "B1 chain with I283T, N285P, R287T, Q290E, S322T, N430A, A470S"}, "B5": {"name": "I283T-N285P-N287T-Q290E-S322T-N388M-K394R-R422D-C430A-L432F-L434W-S436N-dG462 (protein)", "chain": "B1 chain with I283T, N285P, R287T, Q290E, S322T, R422D, N430A"}, "B6": {"name": "I283T-N285P-N287T-Q290E-S322T-N388M-K394R-C430A-L432F-L434W-S436N-dG462-A463V (protein)", "chain": "B1 chain with I283T, N285P, R287T, Q290E, S322T, N430A, A463V"}, "B7": {"name": "I283T-N285P-N287T-Q290E-S322T-N388M-K394R-C430A-L432F-L434W-S436N-dG462-Y471F (protein)", "chain": "B1 chain with I283T, N285P, R287T, Q290E, S322T, N430A, Y471F"}, "B8": {"name": "I35V-Q140L-I283T-N285P-N287T-Q290E-S322T-N388M-K394R-C430A-L432F-L434W-S436N-dG462 (protein)", "chain": "B1 chain with I35V, Q140L, I283T, N285P, R287T, Q290E, S322T, N430A"}, "B9": {"name": "E224P-I283T-N285P-N287T-Q290E-S322T-N388M-K394R-C430A-L432F-L434W-S436N-dG462 (protein)", "chain": "B1 chain with E224P, I283T, N285P, R287T, Q290E, S322T, N430A"}, "B10": {"name": "E224Q-I283T-N285P-N287T-Q290E-S322T-N388M-K394R-C430A-L432F-L434W-S436N-dG462 (protein)", "chain": "B1 chain with E224Q, I283T, N285P, R287T, Q290E, S322T, N430A"}, "B11": {"name": "L222V-I283T-N285P-N287T-Q290E-S322T-N388M-K394R-C430A-L432F-L434W-S436N-dG462 (protein)", "chain": "B1 chain with L222V, I283T, N285P, R287T, Q290E, S322T, N430A"}, "B12": {"name": "N287T-N388M-K394R-C430N-L432F-L434W-S436N (protein)", "chain": "B1 chain with R287T"}, "B13": {"name": "V227L-I283T-N285P-N287T-Q290E-S322T-N388M-K394R-C430A-L432F-L434W-S436N-dG462 (protein)", "chain": "B1 chain with V227L, I283T, N285P, R287T, Q290E, S322T, N430A"}, "B14": {"name": "I283T-N285P-E286A-N287T-Q290E-S322T-N388M-K394R-C430A-L432F-L434W-S436N-dG462 (protein)", "chain": "B1 chain with I283T, N285P, E286A, R287T, Q290E, S322T, N430A"}, "B15": {"name": "I283T-N285P-N287T-Q290E-S322T-R361K-N388M-K394R-C430A-L432F-L434W-S436N-dG462 (protein)", "chain": "B1 chain with I283T, N285P, R287T, Q290E, S322T, R361K, N430A"}, "B16": {"name": "I283T-N285P-N287T-Q290E-S322T-M355V-N388M-K394R-C430A-L432F-L434W-S436N-dG462 (protein)", "chain": "B1 chain with I283T, N285P, R287T, Q290E, S322T, M355V, N430A"}, "B17": {"name": "I283T-N285P-N287T-Q290E-S322T-M355T-N388M-K394R-C430A-L432F-L434W-S436N-dG462 (protein)", "chain": "B1 chain with I283T, N285P, R287T, Q290E, S322T, M355T, N430A"}, "B18": {"name": "I283T-N285P-N287T-Q290E-S322T-M355C-N388M-K394R-C430A-L432F-L434W-S436N-dG462 (protein)", "chain": "B1 chain with I283T, N285P, R287T, Q290E, S322T, M355C, N430A"}, "B19": {"name": "I283T-N285P-N287T-Q290E-S322T-N388M-K394R-E421W-C430A-L432F-L434W-S436N-dG462 (protein)", "chain": "B1 chain with I283T, N285P, R287T, Q290E, S322T, E421W, N430A"}, "B20": {"name": "I283T-N285P-N287T-Q290E-S322T-N388S-K394R-C430A-L432F-L434W-S436N-dG462 (protein)", "chain": "B1 chain with I283T, N285P, R287T, Q290E, S322T, M388S, N430A"}, "B21": {"name": "I283T-N285P-N287T-Q290E-S322T-N388M-K394H-C430A-L432F-L434W-S436N-dG462 (protein)", "chain": "B1 chain with I283T, N285P, R287T, Q290E, S322T, R394H, N430A"}, "B22": {"name": "I283T-N285P-N287T-Q290E-S322T-N388M-K394R-H419P-C430A-L432F-L434W-S436N-dG462 (protein)", "chain": "B1 chain with I283T, N285P, R287T, Q290E, S322T, H419P, N430A"}, "B23": {"name": "N287V-N388M-K394R-C430N-L432F-L434W-S436N (protein)", "chain": "B1 chain with R287V"}, "B24": {"name": "I283T-N285P-N287T-Q290E-S322T-N388M-K394R-H419A-C430A-L432F-L434W-S436N-dG462 (protein)", "chain": "B1 chain with I283T, N285P, R287T, Q290E, S322T, H419A, N430A"}, "B25": {"name": "I283T-N285P-N287T-Q290E-S322T-N388M-K394R-E421L-C430A-L432F-L434W-S436N-dG462 (protein)", "chain": "B1 chain with I283T, N285P, R287T, Q290E, S322T, E421L, N430A"}, "B26": {"name": "I283T-N285P-N287T-Q290E-S322T-N388M-K394R-S429V-C430A-L432F-L434W-S436N-dG462 (protein)", "chain": "B1 chain with I283T, N285P, R287T, Q290E, S322T, S429V, N430A"}, "B27": {"name": "I283T-N285P-N287T-Q290E-S322T-N388M-K394R-C430A-I431K-L432F-L434W-S436N-dG462 (protein)", "chain": "B1 chain with I283T, N285P, R287T, Q290E, S322T, N430A, I431K"}, "B28": {"name": "I283T-N285P-N287T-Q290E-S322T-N388M-K394R-C430A-I431N-L432F-L434W-S436N-dG462 (protein)", "chain": "B1 chain with I283T, N285P, R287T, Q290E, S322T, N430A, I431N"}, "B29": {"name": "I283T-N285P-N287T-Q290E-S322T-N388M-K394R-C430A-I431P-L432F-L434W-S436N-dG462 (protein)", "chain": "B1 chain with I283T, N285P, R287T, Q290E, S322T, N430A, I431P"}, "B30": {"name": "I283T-N285P-N287T-Q290E-S322T-N388M-K394R-C430A-I431C-L432F-L434W-S436N-dG462 (protein)", "chain": "B1 chain with I283T, N285P, R287T, Q290E, S322T, N430A, I431C"}, "B31": {"name": "I283T-N285P-N287T-Q290E-S322T-N388M-K394R-C430A-I431T-L432F-L434W-S436N-dG462 (protein)", "chain": "B1 chain with I283T, N285P, R287T, Q290E, S322T, N430A, I431T"}, "B32": {"name": "I283T-N285P-N287T-Q290E-S322T-N388M-K394R-C430A-I431A-L432F-L434W-S436N-dG462 (protein)", "chain": "B1 chain with I283T, N285P, R287T, Q290E, S322T, N430A, I431A"}, "B33": {"name": "I283T-N285P-N287T-Q290E-S322T-N388M-K394R-C430S-L432F-L434W-S436N-dG462 (protein)", "chain": "B1 chain with I283T, N285P, R287T, Q290E, S322T, N430S"}, "B34": {"name": "N332H-N388M-K394R-C430N-L432F-L434W-S436N (protein)", "chain": "B1 chain with R287N, N332H"}},
  "note": "Residue numbers refer to the chain shown, from its start. Names may count otherwise.",
  "data": [
    {"tested_on": "3-methylcrotonic acid", "assay_type": "biochemical, Yersinia frederiksenii", "design": "key: “+” representing a low increase in activity; “++++” representing a high increase in activity", "values": [
      {"molecule": "B1", "Activity relative to WT": "+"},
      {"molecule": "B2", "Activity relative to WT": "++++"},
      {"molecule": "B3", "Activity relative to WT": "++++"},
      {"molecule": "B4", "Activity relative to WT": "++++"},
      {"molecule": "B5", "Activity relative to WT": "++++"},
      {"molecule": "B6", "Activity relative to WT": "++++"},
      {"molecule": "B7", "Activity relative to WT": "++++"},
      {"molecule": "B8", "Activity relative to WT": "++++"},
      {"molecule": "B9", "Activity relative to WT": "++++"},
      {"molecule": "B10", "Activity relative to WT": "++++"},
      {"molecule": "B11", "Activity relative to WT": "++++"},
      {"molecule": "B12", "Activity relative to WT": "+"},
      {"molecule": "B13", "Activity relative to WT": "++++"},
      {"molecule": "B14", "Activity relative to WT": "++++"},
      {"molecule": "B15", "Activity relative to WT": "++++"},
      {"molecule": "B16", "Activity relative to WT": "++++"},
      {"molecule": "B17", "Activity relative to WT": "++++"},
      {"molecule": "B18", "Activity relative to WT": "++++"},
      {"molecule": "B19", "Activity relative to WT": "++++"},
      {"molecule": "B20", "Activity relative to WT": "++++"},
      {"molecule": "B21", "Activity relative to WT": "++++"},
      {"molecule": "B22", "Activity relative to WT": "++++"},
      {"molecule": "B23", "Activity relative to WT": "+"},
      {"molecule": "B24", "Activity relative to WT": "++++"},
      {"molecule": "B25", "Activity relative to WT": "++++"},
      {"molecule": "B26", "Activity relative to WT": "++++"},
      {"molecule": "B27", "Activity relative to WT": "++++"},
      {"molecule": "B28", "Activity relative to WT": "++++"},
      {"molecule": "B29", "Activity relative to WT": "++++"},
      {"molecule": "B30", "Activity relative to WT": "++++"},
      {"molecule": "B31", "Activity relative to WT": "++++"},
      {"molecule": "B32", "Activity relative to WT": "++++"},
      {"molecule": "B33", "Activity relative to WT": "++++"},
      {"molecule": "B34", "Activity relative to WT": "+"}
    ]}
  ]
}
